Measurements published in the supplement of paper PMC10065799, “High-throughput profiling of sequence recognition by tyrosine kinases and SH2 domains using bacterial peptide display” (eLife, 2023).

What was measured:
Hck = Hck (UniProt P08631); assay: phosphorylation enrichment, bacterial display (enrichment ratio); higher = better substrate or ligand; peptides without Tyr show the background
EPHB2 = EPHB2 (UniProt P29323); assay: as above
Fer (mouse) = assay: as above
Fyn = Fyn (UniProt P06241); assay: as above
EPHB1 = EPHB1 (UniProt P54762); assay: as above
Fes = Fes (UniProt P07332); assay: as above
AncSZ = assay: as above
FGFR1 = FGFR1 (UniProt P11362); assay: as above
c-Abl (mouse) = assay: as above
FGFR3 = FGFR3 (UniProt P22607); assay: as above
Jak2 = Jak2 (UniProt O60674); assay: as above
c-Src = assay: as above
MERTK = MERTK (UniProt Q12866); assay: as above
c-Src SH2 = assay: SH2 binding enrichment of the phosphorylated peptide, bacterial display (enrichment ratio); higher = better substrate or ligand; peptides without Tyr show the background
SHP2-C SH2 = assay: as above
Grb2 SH2 = Grb2 SH2 (UniProt P62993); assay: as above
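For SH2 binding enrichment of the phosphorylated peptide, bacterial display in this document: peptide library displayed on the E. coli surface as eCPX fusions, selected cells deep-sequenced, score is each peptide's frequency after selection divided by its frequency in the input.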
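For phosphorylation enrichment, bacterial display in this document: 11-residue human phosphosite peptides and single-mutation variants displayed on the E. coli surface, counted by deep sequencing, each peptide's frequency after selection divided by its frequency in the unselected input library; frequency after pTyr selection over input frequency; kinase dosed for 20-30% of maximal phosphorylation in three min.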

Sequence of Fes (P07332 whole entry, looked up): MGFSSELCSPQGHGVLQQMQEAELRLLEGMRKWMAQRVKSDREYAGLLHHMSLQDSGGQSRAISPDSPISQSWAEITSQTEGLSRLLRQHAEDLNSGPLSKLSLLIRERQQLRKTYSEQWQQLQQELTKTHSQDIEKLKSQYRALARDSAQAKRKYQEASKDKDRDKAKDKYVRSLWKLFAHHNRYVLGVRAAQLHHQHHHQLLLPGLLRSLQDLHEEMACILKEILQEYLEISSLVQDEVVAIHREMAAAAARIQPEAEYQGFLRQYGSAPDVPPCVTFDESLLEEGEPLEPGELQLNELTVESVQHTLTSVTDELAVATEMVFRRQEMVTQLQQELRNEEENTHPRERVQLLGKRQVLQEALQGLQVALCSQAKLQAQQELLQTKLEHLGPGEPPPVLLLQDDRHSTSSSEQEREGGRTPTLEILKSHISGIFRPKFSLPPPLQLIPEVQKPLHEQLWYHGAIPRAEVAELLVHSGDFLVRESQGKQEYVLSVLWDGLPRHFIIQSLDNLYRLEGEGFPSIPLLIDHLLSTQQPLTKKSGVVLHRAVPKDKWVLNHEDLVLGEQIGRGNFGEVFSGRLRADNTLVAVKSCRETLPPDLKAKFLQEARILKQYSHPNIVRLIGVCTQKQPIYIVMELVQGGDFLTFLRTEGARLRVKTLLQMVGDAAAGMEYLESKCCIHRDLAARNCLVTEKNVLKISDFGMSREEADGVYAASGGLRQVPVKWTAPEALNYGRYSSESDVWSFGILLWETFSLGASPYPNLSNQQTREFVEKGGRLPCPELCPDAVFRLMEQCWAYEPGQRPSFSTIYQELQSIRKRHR
Sequence of FGFR3 (P22607 whole entry, looked up): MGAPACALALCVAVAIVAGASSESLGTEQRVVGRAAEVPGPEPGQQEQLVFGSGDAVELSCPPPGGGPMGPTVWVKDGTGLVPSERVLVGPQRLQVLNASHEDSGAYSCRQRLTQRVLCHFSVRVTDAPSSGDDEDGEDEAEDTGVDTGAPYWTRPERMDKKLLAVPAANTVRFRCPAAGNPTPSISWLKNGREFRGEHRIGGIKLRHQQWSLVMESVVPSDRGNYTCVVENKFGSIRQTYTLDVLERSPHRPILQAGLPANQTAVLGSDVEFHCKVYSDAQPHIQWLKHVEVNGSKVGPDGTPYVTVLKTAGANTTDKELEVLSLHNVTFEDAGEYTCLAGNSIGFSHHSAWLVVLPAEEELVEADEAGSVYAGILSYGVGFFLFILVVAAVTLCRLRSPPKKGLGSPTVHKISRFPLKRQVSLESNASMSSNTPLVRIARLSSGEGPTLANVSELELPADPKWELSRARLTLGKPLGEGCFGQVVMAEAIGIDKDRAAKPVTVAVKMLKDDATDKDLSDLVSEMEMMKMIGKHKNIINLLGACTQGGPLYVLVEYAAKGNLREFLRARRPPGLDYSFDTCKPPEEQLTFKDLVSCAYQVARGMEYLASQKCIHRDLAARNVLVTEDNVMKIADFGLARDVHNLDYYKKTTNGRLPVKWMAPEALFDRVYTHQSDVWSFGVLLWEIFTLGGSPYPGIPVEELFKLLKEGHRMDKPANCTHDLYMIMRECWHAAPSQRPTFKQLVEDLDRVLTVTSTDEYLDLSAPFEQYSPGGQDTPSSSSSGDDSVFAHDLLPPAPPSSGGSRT
Sequence of Fyn (P06241 whole entry, looked up): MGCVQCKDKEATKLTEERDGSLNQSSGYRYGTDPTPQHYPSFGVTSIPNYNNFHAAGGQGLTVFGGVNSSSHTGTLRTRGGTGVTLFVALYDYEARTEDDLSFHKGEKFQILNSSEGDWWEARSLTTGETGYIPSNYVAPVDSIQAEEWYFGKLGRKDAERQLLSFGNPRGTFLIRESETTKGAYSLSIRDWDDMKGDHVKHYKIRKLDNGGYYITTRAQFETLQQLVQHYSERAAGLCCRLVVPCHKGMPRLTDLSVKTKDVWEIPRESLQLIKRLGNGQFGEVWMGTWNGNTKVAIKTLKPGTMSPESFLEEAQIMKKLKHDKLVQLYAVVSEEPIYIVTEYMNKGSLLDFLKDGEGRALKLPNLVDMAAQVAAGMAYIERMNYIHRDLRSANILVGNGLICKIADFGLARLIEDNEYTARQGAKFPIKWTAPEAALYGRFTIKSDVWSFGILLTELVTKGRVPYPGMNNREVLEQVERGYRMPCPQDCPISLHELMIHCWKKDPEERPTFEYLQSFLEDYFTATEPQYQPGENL
Sequence of FGFR1 (P11362 whole entry, looked up): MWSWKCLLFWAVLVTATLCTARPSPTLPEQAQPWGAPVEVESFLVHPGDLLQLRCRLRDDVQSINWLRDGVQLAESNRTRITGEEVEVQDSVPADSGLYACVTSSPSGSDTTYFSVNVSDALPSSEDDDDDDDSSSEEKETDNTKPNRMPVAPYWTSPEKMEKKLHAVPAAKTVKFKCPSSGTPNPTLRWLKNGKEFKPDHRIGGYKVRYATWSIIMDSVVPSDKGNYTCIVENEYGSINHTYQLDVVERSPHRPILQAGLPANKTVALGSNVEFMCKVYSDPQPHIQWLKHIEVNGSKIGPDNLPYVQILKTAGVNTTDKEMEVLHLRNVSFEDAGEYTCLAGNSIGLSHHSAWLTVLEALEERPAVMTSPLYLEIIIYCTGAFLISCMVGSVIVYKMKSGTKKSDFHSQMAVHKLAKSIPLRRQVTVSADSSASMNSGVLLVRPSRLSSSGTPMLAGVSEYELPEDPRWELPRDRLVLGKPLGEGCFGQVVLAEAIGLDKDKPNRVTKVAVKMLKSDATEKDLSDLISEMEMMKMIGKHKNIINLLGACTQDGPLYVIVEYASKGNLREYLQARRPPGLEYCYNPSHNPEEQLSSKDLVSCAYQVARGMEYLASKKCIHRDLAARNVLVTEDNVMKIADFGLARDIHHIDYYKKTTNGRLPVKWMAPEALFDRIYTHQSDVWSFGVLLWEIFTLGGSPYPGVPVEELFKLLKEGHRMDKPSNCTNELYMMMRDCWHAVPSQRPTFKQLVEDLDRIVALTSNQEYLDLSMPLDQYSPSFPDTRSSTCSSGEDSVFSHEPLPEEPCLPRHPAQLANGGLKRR
Sequence of Jak2 (O60674 whole entry, looked up): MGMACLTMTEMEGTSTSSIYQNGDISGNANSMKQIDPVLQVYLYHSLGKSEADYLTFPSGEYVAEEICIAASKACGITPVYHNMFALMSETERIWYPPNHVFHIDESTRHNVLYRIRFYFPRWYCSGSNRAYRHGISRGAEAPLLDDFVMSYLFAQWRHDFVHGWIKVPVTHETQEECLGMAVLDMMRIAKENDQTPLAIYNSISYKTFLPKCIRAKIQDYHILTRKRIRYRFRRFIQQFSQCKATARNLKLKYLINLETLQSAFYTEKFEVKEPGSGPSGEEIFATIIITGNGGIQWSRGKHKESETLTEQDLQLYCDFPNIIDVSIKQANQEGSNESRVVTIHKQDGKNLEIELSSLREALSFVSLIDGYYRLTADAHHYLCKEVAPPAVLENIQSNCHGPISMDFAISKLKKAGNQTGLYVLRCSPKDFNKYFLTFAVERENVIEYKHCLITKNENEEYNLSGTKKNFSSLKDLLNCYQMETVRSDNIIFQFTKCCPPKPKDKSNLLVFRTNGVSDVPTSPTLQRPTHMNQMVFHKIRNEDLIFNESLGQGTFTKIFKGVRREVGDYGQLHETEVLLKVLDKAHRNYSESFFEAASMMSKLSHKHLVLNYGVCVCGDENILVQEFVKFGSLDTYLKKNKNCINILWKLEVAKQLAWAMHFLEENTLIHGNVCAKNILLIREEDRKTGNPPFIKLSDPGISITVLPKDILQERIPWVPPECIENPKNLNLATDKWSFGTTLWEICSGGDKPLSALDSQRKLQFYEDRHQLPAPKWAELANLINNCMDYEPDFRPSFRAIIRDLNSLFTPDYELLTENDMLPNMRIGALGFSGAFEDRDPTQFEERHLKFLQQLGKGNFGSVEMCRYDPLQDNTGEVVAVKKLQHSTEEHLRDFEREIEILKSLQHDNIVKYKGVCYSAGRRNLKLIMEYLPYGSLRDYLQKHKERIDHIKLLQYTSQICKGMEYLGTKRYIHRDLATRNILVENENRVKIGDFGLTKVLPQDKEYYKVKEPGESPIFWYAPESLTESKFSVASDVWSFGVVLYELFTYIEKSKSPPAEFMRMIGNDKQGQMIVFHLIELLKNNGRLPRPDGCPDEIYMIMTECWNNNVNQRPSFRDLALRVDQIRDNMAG
Sequence of Hck (P08631 whole entry, looked up): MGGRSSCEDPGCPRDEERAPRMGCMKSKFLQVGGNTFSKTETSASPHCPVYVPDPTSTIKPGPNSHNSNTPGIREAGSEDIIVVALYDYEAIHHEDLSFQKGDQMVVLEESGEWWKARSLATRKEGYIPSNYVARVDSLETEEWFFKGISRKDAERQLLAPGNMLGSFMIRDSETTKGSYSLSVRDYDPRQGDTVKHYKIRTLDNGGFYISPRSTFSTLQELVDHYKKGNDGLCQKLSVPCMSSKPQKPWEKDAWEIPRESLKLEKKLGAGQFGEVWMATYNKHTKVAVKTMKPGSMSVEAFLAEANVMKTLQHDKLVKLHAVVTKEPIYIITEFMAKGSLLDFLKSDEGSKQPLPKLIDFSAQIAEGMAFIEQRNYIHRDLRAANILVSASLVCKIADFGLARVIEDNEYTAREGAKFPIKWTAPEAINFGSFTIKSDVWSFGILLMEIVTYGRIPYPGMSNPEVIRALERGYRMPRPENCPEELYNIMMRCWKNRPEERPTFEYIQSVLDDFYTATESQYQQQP

Row | Sequence | SH2 binding enrichment (c-Src SH2) | SH2 binding enrichment (SHP2-C SH2) | SH2 binding enrichment (Grb2 SH2) | phosphorylation enrichment (Hck) | phosphorylation enrichment (EPHB2) | phosphorylation enrichment (Fer (mouse)) | phosphorylation enrichment (Fyn) | phosphorylation enrichment (EPHB1) | phosphorylation enrichment (Fes) | phosphorylation enrichment (AncSZ) | phosphorylation enrichment (FGFR1) | phosphorylation enrichment (c-Abl (mouse)) | phosphorylation enrichment (FGFR3) | phosphorylation enrichment (Jak2) | phosphorylation enrichment (c-Src) | phosphorylation enrichment (MERTK)
1 | CFTGKYTLPPG [HSPB1_Y142_R140G] | 0.585 | 0.377 | 0.592 | 0.519 | 0.649 | 0.521 | 0.595 | 0.562 | 1.25 | 1.09 | 0.447 | 0.833 | 0.75 | 0.908 | 0.429 | 0.767
2 | CLAKMYYSAVE [CP_Y539_D544E] | 2.57 | 0.971 | 0.828 | 0.606 | 0.901 | 1.35 | 0.563 | 0.863 | 1.19 | 1.04 | 0.861 | 0.651 | 0.885 | 0.831 | 0.725 | 2.82
3 | CSRHFYQLTKL [AR_Y858_R856H] | 0.97 | 0.821 | 1.04 | 0.464 | 0.576 | 0.615 | 0.444 | 0.501 | 1.17 | 1.06 | 0.705 | 0.763 | 0.662 | 0.969 | 0.422 | 0.432
4 | CTLLPYFSARV [DGKE_Y269_YF] | 0.523 | 0.711 | 0.791 | 0.508 | 0.615 | 0.515 | 0.453 | 0.613 | 1.11 | 0.987 | 0.518 | 1.11 | 0.736 | 1.09 | 0.43 | 0.424
5 | CTTIHQNFMCN [TP53_Y234_Y234Q_YF] | 1.12 | 1.02 | 1.2 | 0.397 | 0.497 | 0.421 | 0.435 | 0.421 | 0.855 | 0.9 | 0.459 | 0.497 | 0.614 | 0.575 | 0.391 | 0.377
6 | CVAARYMDMKG [WFIKKN2_Y93_V96M] | 1.39 | 0.765 | 0.95 | 0.471 | 0.428 | 0.431 | 0.439 | 0.394 | 0.984 | 0.755 | 0.36 | 0.542 | 0.637 | 0.654 | 0.39 | 0.446
7 | DAVAVCHGKIS [SH2D1A_Y7_Y7C] | 0.536 | 0.539 | 0.71 | 0.458 | 0.471 | 0.467 | 0.472 | 0.387 | 0.745 | 0.658 | 0.467 | 0.59 | 0.628 | 0.774 | 0.406 | 0.403
8 | DEEEEYEFMNR [ERBB3_Y1197_D1194E_YF] | 0.637 | 0.747 | 0.946 | 0.522 | 0.76 | 0.485 | 0.512 | 0.62 | 1.07 | 1.16 | 0.572 | 1.1 | 0.779 | 0.903 | 0.527 | 0.462
9 | DFDNLYFWDQD [ERBB2_Y1221_A1216D_YF] | 0.333 | 0.854 | 0.668 | 5.15 | 1.07 | 2.2 | 6.47 | 1.57 | 1.71 | 2.2 | 7.58 | 0.801 | 7.69 | 1.25 | 5.27 | 4.6
10 | DFDNLYYWDQD [ERBB2_Y1221_A1216D] | 0.453 | 0.462 | 0.808 | 5.31 | 3.3 | 3.8 | 6.81 | 4.08 | 1.96 | 2.68 | 9.53 | 0.973 | 9.13 | 1.86 | 6.09 | 7.57

Continued, in another order:

Row | SH2 binding enrichment (c-Src SH2) | SH2 binding enrichment (SHP2-C SH2) | SH2 binding enrichment (Grb2 SH2) | Sequence | phosphorylation enrichment (Hck) | phosphorylation enrichment (EPHB2) | phosphorylation enrichment (Fer (mouse)) | phosphorylation enrichment (Fyn) | phosphorylation enrichment (EPHB1) | phosphorylation enrichment (Fes) | phosphorylation enrichment (AncSZ) | phosphorylation enrichment (FGFR1) | phosphorylation enrichment (c-Abl (mouse)) | phosphorylation enrichment (FGFR3) | phosphorylation enrichment (Jak2) | phosphorylation enrichment (c-Src) | phosphorylation enrichment (MERTK)
11 | 0.477 | 0.601 | 0.683 | CFTRKYTLPPG [HSPB1_Y142] | 0.457 | 0.459 | 0.459 | 0.443 | 0.546 | 1.06 | 0.763 | 0.495 | 0.678 | 0.604 | 0.787 | 0.452 | 0.42
12 | 0.393 | 0.571 | 0.825 | CSPLLYRVIMS [OR8D4_Y132] | 0.6 | 0.695 | 0.577 | 0.527 | 0.691 | 1.25 | 1.22 | 0.611 | 0.851 | 0.75 | 0.992 | 0.449 | 0.507
13 | 1.84 | 1.93 | 1.8 | CTTIHYNFMCN [TP53_Y234_Y236F] | 0.456 | 0.485 | 0.516 | 0.436 | 0.428 | 0.923 | 0.861 | 0.509 | 0.661 | 0.645 | 0.824 | 0.487 | 0.405
14 | 1.67 | 1.83 | 1.96 | CTTIHYNFTCN [TP53_Y234_M237T_YF] | 0.414 | 0.6 | 0.426 | 0.443 | 0.448 | 0.866 | 0.797 | 0.496 | 0.634 | 0.593 | 0.704 | 0.441 | 0.42
15 | 0.453 | 0.556 | 0.649 | DALDNYVIRGV [PCCA_Y473] | 0.46 | 0.583 | 0.481 | 0.457 | 0.512 | 0.842 | 0.849 | 0.486 | 0.633 | 0.506 | 0.846 | 0.504 | 0.408
16 | 0.744 | 0.895 | 1.03 | DEEPPHRGPFC [SASH1_Y551_Y551H] | 0.542 | 0.783 | 0.528 | 0.489 | 0.619 | 1.06 | 1.01 | 0.645 | 0.609 | 0.651 | 0.795 | 0.475 | 0.41
17 | 0.481 | 0.627 | 0.774 | DENWFYMRAAS [RPS19_Y54_T55M] | 0.485 | 0.654 | 0.594 | 0.43 | 0.718 | 1.52 | 1.35 | 0.654 | 0.869 | 0.933 | 1.25 | 0.384 | 0.379
